One substance from PMC11272045 can be followed below.

For the assay, the target named is recombinant his-tag subtilisin-like protease-1 (SspA-1) (Streptococcus suis serotype 2 strain 05ZYH33). Nature of the assay: MST.

“recombinant glutathione S-transferase (GST)-tagged human TLR2 (from UniProt O60603 21-784) (receptor)”: the Kd was found to be 0.0243 µM.

One may read the Kd as the equilibrium constant for the complex coming apart.
